Data published in the RNAGym collection of RNA variant scans (doi:10.7554/elife.90254).

B1: OR4K15 (parent)
chain: GUUAACGGUCAUAGGCCAUGGAAACUAGGAGCACCAUUUCGCUGCCAGUGAAGAAAUGAACAAAGAAAAUCUGGGCCAGGCAGGCAUCAAAAGAAAUAGUCUUGCGCUCAACCAGAAAGUCUGUAAUCAUUUUAAGGGUA

Variants of: B1
Experiment: self-cleavage, relative activity (ratio to wild type); higher = more cleavage; in vitro, sequencing; the parent is a self-cleaving ribozyme

Variant	self-cleavage
A13G G80A	0.43
U39C A116U	0.23
A64G U122C	1.81
C71A A98G	0.14
A60U A68G	1.79
A68U A90G	1.18
C17A A117G	1.53
U37C U57A	0.99
U57C A62G	0.7
U43C U57G	0.87
A66G U100A	0.58
U103C G136U	1.12
A27C G75C	0.12
A117G A126G	1.27
U70G U122A	1.34
A78G U131C	0.07
C112A A140G	0.02
A94G A110G	0.13
A51U A91G	0.5
U38A A52U	1.64
A36U A126G	0.99
A36G A78G	0.07
A89G U120C	0.65

Variant	self-cleavage
A51G A94U	1.78
A22G G31A	1.19
A22G A126U	0.92
U57G U87A	1.47
U19A A56G	1.6
A23U U131C	1.02
G99A G136A	0.91
U9A A36U	1.2
U38C U39A	0.89
U9C A86G	1.18
G31A A60G	0.77
U102C A118U	1.08
A68U U72A	0.34
U37C G137A	1.64
A86U C112U	0.02
A33U A114G	0.64
A82U C101U	0.04
A94G A114C	0.05
G21U A22G	1.71
U9C A13U	1.22
A62G A98G	0.4
U37G U132C	0.78
U139C	1.04

Variant	self-cleavage
A125G U127A	1.11
A51C U127A	2.59
A95C A140G	0.98
A11U U127C	1.06
A92G U108G	0.02
A69G A135G	0.07
U124G A125G	0.6
A78U A126G	0.17
A67U U120C	1.13
A60C U122A	1.74
U37G G138A	1.23
A67U U127C	1.01
G75A A82G	0.12
A68G A125G	0.48
A114U U127C	0.03
A95G U100A	1.26
A52U A95G	1.48
A59U A117U	0.89
A82U A95G	0.51
C16U A18U	1.52
G80A A90G	0.18
U12G A22G	1.13
C81U A134G	0.53

Variant	self-cleavage
G74A A94C	0.06
A33U C76G	0.17
A114C U122A	0.04
A4U U57C	0.65
G31U A129G	1.78
U12C A82U	0.24
A52U G79A	0.37
A92U A116G	0.99
A98U A117G	1.63
A24G U139G	1.86
U39C A56G	0.89
A60U A78G	0.23
C105U A135U	0.28
U37C A52G	1.4
A24C A33G	1.14
A51G U131G	1.08
A63U A118U	1.02
A129C U133A	1.68
A94C U131C	0.24
U19A G53A	1.39
A23G A64G	0.58
A96G A126G	1.01
A52G U139C	2.03

Variant	self-cleavage
A24C A117G	0.83
A55C G106A	0.02
U26C A60G	1.61
U49A C61U	1.38
A63G U127C	0.58
A66G A116U	0.7
A33U C81U	0.27
A11G A111G	0.04
U43C A135G	2.01
U100A A118G	0.47
A64G G138A	1.9
A67G A95U	1.41
A69U G137A	2.13
A118U A126G	0.17
G31A U43A	2.08
A30C A51U	2.04
A13U A125U	1.71
U2C A64G	1.48
A52U A126G	1.31
A94G U130G	1.09
G15A U70A	0.96
U12C A64G	0.41
A5G C121U	1.14

Variant	self-cleavage
C46A A91G	0.95
A62G U102C	1.19
U49C U57A	1.03
A33G U131C	0.63
U19C U132C	1.24
A86U A129U	1.13
C101G U120C	0.03
U37C A110C	0.1
U97G U103C	0.69
C85G	1.18
C61U A110G	0.11
A90U A94G	1.48
A60G C105G	0.01
U9A A27G	0.47
U26C A96G	1.5
G7A U131C	1.36
A13G U70C	0.87
U2C U131A	1.39
A78U A134G	0.31
U87C U132C	0.92
G21U A62G	1.54
A110G A117U	0.06
A51G U139A	1.48

Variant	self-cleavage
A114G A118C	0.11
G65A A68G	1.57
G41U A68G	1.46
A36U U87C	1.76
A90U A117G	1.99
U12C A18C	0.58
A33U A54G	0.76
U12C A54U	1.51
U57A U100C	2.19
U49A A129G	0.63
U3C A47G	1.39
A95G U108C	0.01
C10U A111G	0.07
A18U A117U	0.76
A82G U124A	0.32
A24U C128A	1.85
A95G U102C	2.62
U97A U108A	0.03
A51U A52U	1.99
U3C U108C	0.04
A125G A129U	0.01
